How the values were obtained:
[1] = target: T1, HLA-E*0103 (extracellular domain with beta-2-microglobulin, recombinant) (human); assay: peptide binding and in vitro refolding
[2] = target: T1, HLA-E*0103 (extracellular domain with …); assay: in vitro refold, Superdex 75, SEC-HPLC, 3D12 binding

Binder: YLLPAIVHI [peptide YLLPAIVHI (RNA Helicase p68)]
- binding result [1]: binds

Binder: GLADKVYFL [peptide GLADKVYFL (CAD protein)]
- binding result [2]: binds

Reference: patent US20200291116A1 (ABEXXA BIOLOGICS, published 2020)
